From article PMC6509287 come the findings set out here.

Test [1] addresses TOPBP1 (UniProt Q92547). The experiment in a line: GST pull-down from nuclear extract. To be noted: reference: wild-type fragment; sites S196.
In test [2] the target is TOPBP1 (UniProt Q92547). The test can be described thus: HA immunoprecipitation, western blot. To be noted: reference: wild type. (In general: Immunoblotting shows a protein as a band on a membrane.)

For “MDC1 109-330 (from UniProt Q14676) S196A”, the “binding against the reference” value with TOPBP1 [1] is listed as “lost”.

For MDC1 (from UniProt Q14676) S196A, in the test with TOPBP1 [2] (sites S196), the “binding against the reference” value is “lost”. Turning to MDC1 (from UniProt Q14676) S168A, the “binding against the reference” value with TOPBP1 [2] (sites S168) was “lost”.
